Data from patent US20220411517A1 (LEO PHARMA A S, published 2022).

Legend:
[1] = target: T1, human IL1RAcP domain 1 (AG-12335) (human); test: ELISA on directly coated human IL-1RAcP domain 1 (AG-12335), IgG titrated, S/BG
T1 construct: also called domain 1 of human IL-1RAcP
T1 chain: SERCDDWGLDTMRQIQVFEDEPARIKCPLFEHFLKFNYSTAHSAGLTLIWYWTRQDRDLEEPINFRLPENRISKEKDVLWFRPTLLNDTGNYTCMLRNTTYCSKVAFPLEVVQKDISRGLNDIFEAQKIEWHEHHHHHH
Protocol: All were assessed with direct coating of the antigen. […] An anti-His antibody served as positive control.

[2] = target: T2, hIL-1RAP(1-367)_F-chLys_Avi (human, biotinylated (Avi tag) in SPR and ELISA binning; unlabeled in SET); test: solution equilibrium titration (SET), ECL read-out, IgG
T2 construct: also called human IL-1RAcP (AG-12210)
Protocol: (§1) MSD SulfoTAG™ NHS-Ester (Meso Scale Diagnostics) according to the manufacturer's instructions. […] Serial dilutions of unlabeled antigen were prepared, starting with a concentration at least 10 times higher than the expected KD. Wells without antigen were used to determine Bₘₐₓ values;
(§2) wells containing only assay buffer were used to determine background. […] MSD plates were coated with antigen on standard plates (30 μL per well). After washing the plate with PBS with 0.05% Tween 20, the equilibrated samples were transferred to the plates and incubated for 20 min. […] After washing the MSD plate and adding 30 μL/well MSD Read Buffer T with surfactant, electrochemiluminescence signals were detected using a MESO SECTOR S 600 (Meso Scale Diagnostics).
(§3) The data was evaluated with XLfit (IDBS) software applying customized fitting models.

[3] = target: T3, cyIL-1RAP(1-367)_F-chLys_Avi (cynomolgus, biotinylated (Avi tag) in SPR; unlabeled in SET); test: as above
T3 construct: cynomolgus IL-1RAcP (21-367) is UniProt A0A2K5X5J5; also called cynomolgus IL-1RAcP (AG-12211)
Protocol: as §1, §2, §3

[4] = target: T4, cynomolgus IL-1RAcP on cells (cynomolgus, UniProt A0A2K5X5J5 21-570); test: cell-based or functional assay
[5] = target: T5, human IL-1RAcP on cells (human, UniProt Q9NPH3 21-570); test: cell-based or functional assay
[6] = target: T6, human IL1RAcP domain 3 (AG-12127) (human); test: ELISA on directly coated human IL-1RAcP domain 3 (AG-12127), IgG titrated, S/BG
T6 construct: also called domain 3 of human IL-1RAcP
T6 chain: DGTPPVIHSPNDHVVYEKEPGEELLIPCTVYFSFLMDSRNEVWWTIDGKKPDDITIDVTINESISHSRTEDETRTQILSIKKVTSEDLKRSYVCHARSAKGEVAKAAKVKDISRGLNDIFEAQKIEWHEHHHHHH

[7] = target: recombinant rat IL-1RAcP (rat, UniProt Q63621 21-367, limits assumed); test: ELISA (FIG. 1-3 cited)
[8] = target: T7, mouse (AG-12212) IL-1RAcP (mouse, UniProt Q61730 21-367, limits assumed); test: ELISA, Fc-capture mode of the IgGs (FIG. 1-3)
T7 construct: Recombinant tagged antigen; also called recombinant mouse IL-1RAcP; mouse IL-1RAP
Description: Bound antibodies were detected using respective alkaline-phosphatase (AP) coupled secondary antibodies in combination with ‘AttoPhos’ fluorescence substrate. Multiple washing steps have been performed in between individual assay steps.

[9] = target: T5, human IL-1RAcP on cells; test: flow cytometry on primary human dermal fibroblasts expressing endogenous IL-1RAcP (FIG. 4-1)
Protocol: Cell suspensions were transferred into microtiter plates and antibody samples were added followed by subsequent incubation of plates at 4° C. for 3 hours. Following incubation, cells were washed several time with FACS buffer.

[10] = target: T4, cynomolgus IL-1RAcP on cells; test: cell-based or functional assay; remark: listed apart in the source
[11] = target: T5, human IL-1RAcP on cells; test: cell-based or functional assay; remark: listed apart in the source
[12] = target: T3, cyIL-1RAP(1-367)_F-chLys_Avi; test: SET, ratio of KD values
[13] = target: T2, hIL-1RAP(1-367)_F-chLys_Avi; test: SET, ratio of KD values
[14] = target: T8, human IL1RAcP domain 1/2 (AG-12337) (human); test: ELISA on directly coated human IL-1RAcP domain 1/2 (AG-12337), IgG1f_AEASS titrated, S/BG
T8 construct: also called domain 1/2 of human IL-1RAcP

[15] = target: T2, hIL-1RAP(1-367)_F-chLys_Avi; test: ELISA binning; competitor: coated Y024148 FabCys-AviHis; 1.5 nM biotinylated human IL-1RAcP (AG-12210) pre-incubated with the titrated Fab; captured IL-1RAcP detected with streptavidin-AP
Protocol: (§4) Epitope binning was performed using an ELISA-based competition assay. The experiments were performed using either IgG1f_AEASS or FabCys-AviHis. Antibodies were diluted to three (3) nM (for IgGs) or to 20 nM (in case of Fabs) in PBS. […] The next day 90 μL/well blocking solution (5% BSA in PBS) was added to the plate followed by an incubation at RT for at least 1 h. During incubation, the competing antibodies, including reference and negative control antibodies, were diluted in assay buffer (1xPBS, 0.5% BSA, 0.02% Tween). […] Following the incubation of the blocking solution, the ELISA plates were washed 3× with PBST. Subsequently, 20 μl/well of the prepared antibody/antigen solution was transferred to the wells and incubated for 30 min with gentle agitation. Subsequently, plates were washed 3× using PBS-T.
For detection 20 μl of a prepared streptavidin-alkaline phosphatase conjugate solution was added to the wells in order to detect bound biotinylated human IL-1RAcP. Incubation happened for 30 min with gentle agitation. Following the incubation with streptavidin-alkaline phosphatase conjugate, assay plates were washed 5× with PBS-T. Then 20 μl of AttoPhos substrate (diluted 1:5 in H₂O) was added to the wells. Plates were incubated for 10 min at RT and readout happened using a Tecan M1000 Pro Reader. […]

[16] = target: T2, hIL-1RAP(1-367)_F-chLys_Avi; test: ELISA binning; competitor: coated Y024149 FabCys-AviHis (sheet title Y024149_FAB COATED); 1.5 nM biotinylated human IL-1RAcP (AG-12210) pre-incubated with the titrated Fab; captured IL-1RAcP detected with streptavidin-AP
Protocol: as §4
(§5) For detection 20 μl of a prepared streptavidin-alkaline phosphatase conjugate solution was added to the wells in order to detect bound biotinylated human IL-1RAcP. Incubation happened for 30 min with gentle agitation. Following the incubation with streptavidin-alkaline phosphatase conjugate, assay plates were washed 5× with PBS-T. Then 20 μl of AttoPhos substrate (diluted 1:5 in H₂O) was added to the wells. Plates were incubated for 10 min at RT and readout happened using a Tecan M1000 Pro Reader.
(§6) Every graph represents an individual first antibody in the FabCys-AviHis format coated on the surface. […] Subsequently, preformed antigen antibody complex was added to the respective wells with the surface coated first antibody. Detection happened via the biotin of IL-1RAcP using a streptavidin-alkaline phosphatase conjugate.

[17] = target: T2, hIL-1RAP(1-367)_F-chLys_Avi; test: SPR (Biacore), biotinylated antigen captured, FabCys-AviHis as analyte, 1:1 fit
Protocol: (§7) Approximately 3000 RU capture reagent was bound. This surface was used to load biotinylated antigen to generate a low-density surface for subsequent kinetic characterization (approx. 60-100 RU antigen loaded). […] After injecting the last and highest analyte concentration, a long dissociation phase was recorded. […] A blank injection of assay buffer (HBS-EP+) following the same injection pattern as described above was recorded and subtracted from specific sensorgrams during analysis (double referencing). At the end of each cycle, the sensor was regenerated with one 120 s injection of 6 M guanidine hydrochloride in 250 mM NaOH, which completely removed capture reagent with loaded biotinylated antigen and bound Fab fragments. The obtained sensorgrams were fitted to a monovalent binding model using Biacore Insight Evaluation Software. The obtained values for rate constants kₒₙ and koff were used to calculate KD.

[18] = target: T2, hIL-1RAP(1-367)_F-chLys_Avi; test: ELISA binning; competitor: coated CAN04 FabCys-AviHis; 1.5 nM biotinylated human IL-1RAcP (AG-12210) pre-incubated with the titrated Fab; captured IL-1RAcP detected with streptavidin-AP
Protocol: as §4, §5, §6

[19] = target: T3, cyIL-1RAP(1-367)_F-chLys_Avi; test: SPR (Biacore), biotinylated antigen captured, FabCys-AviHis as analyte, 1:1 fit; comment: Koff at assay limit
Protocol: as §7

[20] = target: T2, hIL-1RAP(1-367)_F-chLys_Avi; test: ELISA binning; competitor: coated Y024084 FabCys-AviHis (sheet title Y024084_FAB COATED); 1.5 nM biotinylated human IL-1RAcP (AG-12210) pre-incubated with the titrated Fab; captured IL-1RAcP detected with streptavidin-AP
Protocol: as §4, §5, §6

B1: Y024149_h_IgG1f_AEASS (antibody, V domains shown)
VH: EVQLVESGGGLVQPGGSLRLSCAASGGTFGGSAMHWVRQAPGKGLVWVSRILTYGGIATYAESVKGRFTISRDNAKNTLYLQMNSLRAEDTAVYYCARGSSEYPKFDIWGQGTLVTVSS
VL: DIQMTQSPSTLSASVGDRVTITCRASQSISSWLAWYQQKPGKAPKLLIYDASSLESGVPSRFSGSGSGTEFTLTISSLQPEDFATYYCHQLLIYPHTFGQGTKVEIKR
notes: Human IgG1f with AEASS effector-silencing residues, kappa light chain
B1 was tested, and the binding result [1] was “no binding (tested: 2e-7 M)”, the Kd [2] was 0.003 nM and the Kd [3] was 0.001 nM. The “IC50, IFN-γ release, cynomolgus whole blood stimulated with 300 ng/ml rcIL-33” value [4] was roughly 15 nM, the “IC50, IL-6 release, cynomolgus whole blood stimulated with 50 ng/ml rcIL-1β” value [4] was roughly 50 nM and the “IC50, IL-6 release, cynomolgus whole blood stimulated with IL-1β” value [4] was roughly 70 nM. The “IC50, IL-6 release, human whole blood stimulated with 1 ng/ml rhIL-1β” value [5] was roughly 10 nM, the “IC50, IL-6 release, human whole blood stimulated with 5 ng/ml rhIL-1β” value [5] was roughly 8 nM and the “IC50, IL-6 release, human whole blood stimulated with 10 ng/ml rhIL-1β” value [5] was roughly 20 nM. B1: no binding (tested: 2e-7 M) [6]; no binding [7]; no binding [8]. For the same binder, the EC50 [9] was 1.48 nM, the “IC50, IL-8 release, CyDFa stimulated with cynomolgus IL-1β” value [10] was 0.032 nM and the “IC50, IFNγ release, PBMC stimulated with IL-1β” value [11] was 1.7 nM. For the same binder, the “IC50, IFNγ release, PBMC stimulated with IL-33” value [11] was 0.2 nM, the “IC50, IL-8 release, HDFa stimulated with IL-1α” value [11] was 1.1 nM and the “IC50, IL-8 release, HDFa stimulated with IL-36α” value [11] was 0.039 nM. The “IC50, IL-8 release, HDFa stimulated with IL-36β” value [11] was 0.06 nM, the “IC50, IL-8 release, HDFa stimulated with IL-36γ” value [11] was 0.026 nM and the “IC50, IL-8 release, HEKa stimulated with IL-1β” value [11] was 31 nM. The “IC50, IL-8 release, HEKa stimulated with IL-36β” value [11] was 0.094 nM, the “fold stronger KD than reference R001031 (CAN04)” value [12] was roughly 16 fold and the “fold stronger KD than reference R001032 (1A05)” value [12] was roughly 15 fold. The “fold stronger KD than reference R001031 (CAN04)” value [13] was roughly 7 fold, the “fold stronger KD than reference R001032 (1A05)” value [13] was roughly 3.5 fold and the “EC50 (read off the curve)” value [14] was roughly 5 nM.

B2: Y024149_h_FabCys-AviH (Fab, V domains shown)
VH: EVQLVESGGGLVQPGGSLRLSCAASGGTFGGSAMHWVRQAPGKGLVWVSRILTYGGIATYAESVKGRFTISRDNAKNTLYLQMNSLRAEDTAVYYCARGSSEYPKFDIWGQGTLVTVSS
VL: DIQMTQSPSTLSASVGDRVTITCRASQSISSWLAWYQQKPGKAPKLLIYDASSLESGVPSRFSGSGSGTEFTLTISSLQPEDFATYYCHQLLIYPHTFGQGTKVEIKR
notes: Disulphide-linked Fab with Avi and His tags; also called Y024149 in FabCys-AviHis format
B2 was tested, and the “IC50 (read off the curve)” value [15] was roughly 0.7 nM, the “IC50 (read off the curve)” value [16] was roughly 0.7 nM and the Kd [17] was 0.025 nM. For the same binder, the “IC50 (read off the curve)” value [18] was roughly 1 nM, the Kd [19] was 0.006 nM and the “IC50 (read off the curve)” value [20] was roughly 0.7 nM.
